The source of these data is paper PMC5027281 (Nature Communications, 2016).

Substitutions are numbered along the chain they refer to.

Test [1] concerns the target T1, Recombinant full-length HA of A/Perth/16/09 (H3-PE09) (influenza A virus A/Perth/16/09). Description: BLI. As to conditions: both partners purified.
For test [2], the target named is T1, Recombinant full-length HA of …. The test can be described thus: BLI. Particulars: both partners purified. The source holds these as a separate data set.

B1: 3I14-mHgL IgG1 (mature heavy chain, germline light chain) (antibody, V domains shown)
VH: QVQLLESGGGVVQPGRSLRLSCAASGFTFSNYGMHWVRQAPGKGLEWVAIISFDGSKKYYANSVKGRSTISRDNSKNTLSLQMNSLGPEDTALYYCAKLPSPYYFDSRFVWVAASAFHFWGQGILVTVSS
VL: not shown
B1: in test [1], the Kd (in general, the concentration at which binding is half-saturated) came out at 0.658 nM; the off-rate constant (koff) (commonly the first-order rate constant of dissociation) amounted to 0.000126 s⁻¹; the kon – broadly, a measure of how fast the partners come together – turned out to be 192000 M⁻¹ s⁻¹.

B2: 3I14 VLD94N variant IgG1 (antibody, V domains shown)
VH: B1 VH
VL: NFMLTQPPSASGTPGQRVTISCSGSSSNIGGNTVHWFQQLPGTAPKLLIYTNSLRPSGVPDRFSGSKSGTSASLAISGLQSEDEADYYCAAWDNSLNGQVFGGGTKLTVL
On to B2, for which, in test [2], the Kd was 0.308 nM, the koff was found to be 5.44e-05 s⁻¹ and the kon was 177000 M⁻¹ s⁻¹.

B3: 3I14-GL IgG1 (VH and VL germline versions) (antibody, V domains shown)
VH: QVQLVESGGGVVQPGRSLRLSCAASGFTFSSYGMHWVRQAPGKGLEWVAVISYDGSNKYYADSVKGRFTISRDNSKNTLYLQMNSLRAEDTAVYYCAKLPSPYYYDSRFVWVAASYFDYWGQGTLVTVSS
VL: not shown
As to B3, in test [1], the Kd is 4.02 nM, the koff was found to be 0.000556 s⁻¹ and the kon was 139000 M⁻¹ s⁻¹.

B4: 3I14-gHmL IgG1 (germline heavy chain, mature light chain) (antibody, V domains shown)
VH: B3 VH
VL: B2 VL with N94D
Consider B4, for which, in test [1], the Kd is 0.733 nM, the koff was determined as 0.000125 s⁻¹ and the kon came out at 171000 M⁻¹ s⁻¹.
